# Results as given in patent US10323078B2, “Isolated peptides and fragments thereof from fibrinogen for use as drugs, particularly in skin inflammatory diseases” (Universite Paris Descartes, priority 2015, dated 2019).
# Ends that are not written are not given here.
# B1: DAGGCLHADPDLGVLCPTGCQLQEALLQQERPIRNSVDELNNNVEAVSQTSSSSFQYMYLLKDLWQKRQKQVKDNENVVNEYSSELEKHQLYIDETVNSNIPTNLRVLRSILENLRSKIQKLESDVSAQMEYCRTPCTVSCNIPVVS (protein)
# chain: DAGGCLHADPDLGVLCPTGCQLQEALLQQERPIRNSVDELNNNVEAVSQTSSSSFQYMYLLKDLWQKRQKQVKDNENVVNEYSSELEKHQLYIDETVNSNIPTNLRVLRSILENLRSKIQKLESDVSAQMEYCRTPCTVSCNIPVVS
# modifications: fragment Fg2
# notes: recombinant fragment of Bß sub-unit of human fibrinogen, used as negative control
# Tests used:
# NHEK cells [1] = experiment: In vitro model of psoriasis: cytotoxicity by MTT assay; type: cell-based, human; conditions: all concentrations tested (1.52 to 12.2 μM)
# Experimental: FIG. 30: Inhibition of Il-8 production by keratinocytes stimulated by Il-17, OSM and TNF-α. NHEK cells were stimulated by a combination of Il-17, OSM and TNF-α (3 ng/ml each) and treated with JAK inhibitor at 10 μM (positive control) or Fg1.1.1 at concentrations ranging from 1.52 to 12.2 μM for 48 h. Measurement of IL-8 production was realized by ELISA and cytotoxicity was determined by the MTT assay as described in Materials and Methods Control experiments were done with untreated and unstimulated NHEK cells (cell alone) and with untreated NHEK stimulated by the combination of Il-17, OSM and TNF-α. Data are means±S.D. of three individual experiments. […]
# FIG. 31: Inhibition of hBD-2 production by keratinocytes stimulated by Il-17, OSM and TNF-α. […] Measurement of hBD-2 production was realized by ELISA and cytotoxicity was determined by the MTT assay as described in Materials and Methods Control experiments were done with untreated and unstimulated NHEK cells (cell alone) and with untreated NHEK stimulated by the combination of Il-17, OSM and TNF-α. […]
# Crystal violet staining was used to determine the number of adherent cells in 96-well plates. […] After washing with PBS, 100% methanol was added, and the absorbance was measured spectrophotometrically at 540 nm on an ELISA multiwell reader. […] After thorough mixing, the absorbance was measured at 540 nm.
# NHEK cells [2] = experiment: In vitro model of psoriasis: IL-8 release by keratinocytes stimulated by IL-17, OSM and TNF-α; type: cell-based, human; conditions: NHEK stimulated by IL-17, OSM and TNF-α (3 ng/ml each); 10 μM; 48 h
# Experimental: (§1) FIG. 30: Inhibition of Il-8 production by keratinocytes stimulated by Il-17, OSM and TNF-α. NHEK cells were stimulated by a combination of Il-17, OSM and TNF-α (3 ng/ml each) and treated with JAK inhibitor at 10 μM (positive control) or Fg1.1.1 at concentrations ranging from 1.52 to 12.2 μM for 48 h. Measurement of IL-8 production was realized by ELISA and cytotoxicity was determined by the MTT assay as described in Materials and Methods Control experiments were done with untreated and unstimulated NHEK cells (cell alone) and with untreated NHEK stimulated by the combination of Il-17, OSM and TNF-α. Data are means±S.D. of three individual experiments. Statistical significance is indicated by * (P<0.05), ** (P<0.01), and *** (P<0.001), respectively.
# (§2) For experiences using an in vitro model of psoriasis, cutaneous primary human keratinocytes (NHDK) were grown in culture medium for 24 hours. […]
# (§3) Human IL-1ß, IL-8, IL-12, hBD-2, and TNF-α protein concentration was measured in the supernatants of stimulated cells using various ELISA Set kits (Ready-Set-Go kit from eBioscience for acne experiments, and for psoriasis experiments the Duo set IL-8 kit from R&D Systems and the BD-2 Human Development (hBD-2) from Peprotech) according to the manufacturer's instructions. […] The optical density was determined at 450 nm at a wavelength correction of 540 nm. […]
# NHEK cells [3] = experiment: In vitro model of psoriasis: hBD-2 release by keratinocytes stimulated by IL-17, OSM and TNF-α; type: cell-based, human; conditions: NHEK stimulated by IL-17, OSM and TNF-α (5 ng/ml each); 10 μM; 72 h
# Experimental: as §1, with “31:” for “30:”, “hBD-2” for “Il-8”, “(5” for “(3”, “72” for “48”, “hBD-2” for “IL-8”
# as §2, §3
# Pfg = experiment: Western ligand blot with biotinylated Pfg; type: binding, Propionibacterium acnes; conditions: E. coli total protein after IPTG induction, 12.5% SDS-PAGE; biotinylated Pfg 0.1 μg/ml
# Experimental: FIG. 5: Binding of P. acnes surface proteins to fibrinogen. (A) Various quantities of human fibrinogen (hFg) and bovine fibrinogen (bFg) were immobilized onto a 96-well polystyrene plate at 4° C. for 18 h and incubated with biotinylated Pfg at 0.1 μg/ml for 2 h at 23° C. Bovine serum albumin (BSA) was used as negative control. Bound material was detected by using the HRP-streptavidin conjugate. Peroxidase activity was measured by using the ABTS substrate at 405 nm. Proteins (10 μg per lane) were separated by 10% SDS-PAGE and detected by (B) Commassie blue staining, and transferred to nitrocellulose membrane and incubated with (C) HRP-streptavidine alone, and (D) biotinylated Pfg (0.1 μg/ml). Lanes 1: molecular weight standards. Lane 2: BSA. Lane 3: hFg. Lane 4: bFg.
# FIG. 8: Cloning of Bß human fibrinogen fragments and binding with Pfg. (A) Cloning and expression of recombinant human Bß fibrinogen fragments Fg1, Fg2, Fg3 and Fg4. Fibrinogen fragments were obtained by RT-PCR and expression plasmids were constructed as described in Materials and Methods. (B) GST-fused proteins were expressed in E. coli, fractionated by 12.5% SDS-PAGE, and detected by Coomassie blue staining (B), and incubated with biotinylated Pfg (0.1 μg/ml) as described in Materials and Methods (C).
# To characterize the interaction between P. acnes and ligands, we used biotinylated molecules in quantitative and qualitative assays. In a first set of assays, ECM ligands (fibrinogen, collagens I, IV, VI and VIII) were used as labelled proteins with biotin. In a second set of assays, P. acnes surface proteins (total extract and purified Pfg) were biotinylated. For quantitative analysis, unlabeled protein were diluted into 50 mM carbonate-bicarbonate, pH 9.6 buffer to yield a protein concentration ranging from 0.01 to 50 μg/ml, and then immobilized to 96-well polystyrene plates at 4° C. overnight. The wells were rinsed three times with 0.2 ml of PBS containing 0.05% Tween-20 (PBS-Tween). Biotinylated proteins (0.01 to 16 μg/ml in PBS-Tween) were added to the wells and incubated at room temperature for 1 h. The wells were rinsed three times with 0.2 ml of PBS-Tween. Peroxidase conjugated to streptavidin (0.5 μg/ml in PBS-Tween) was added and incubated for 30 min at room temperature. After washing, bound peroxidase was detected using the chromogenic peroxidase substrate ABTS. For qualitative analysis, unlabelled protein (10-75 μg per lane) were separated by SDS-PAGE and then transferred to nitrocellulose membranes (0.45 μm pore size), as described previously (Towbin, 1979). Membranes were then saturated overnight at 4° C. in PBS containing 5% BSA, 0.05% Tween-20 (PBT buffer). Binding activity was detected by incubating the membranes with 20 ml of PBT containing biotinylated proteins (0.1 μg/ml) for 2 h at room temperature followed by three washes with PBT. Bound biotinylated proteins were detected by incubating the membrane with peroxidase conjugated to streptavidin (0.5 μg/ml in PBT) for 1 h at room temperature. After washing, bound peroxidase activity was detected using 3,3′-diaminobenzidine in the presence of CoCl2 and H2O2 (Harlow and Lane, 1988).
# Since it was shown that Pfg is recognized by fibrinogen, this ECM ligand was used to analyze the nature of this interaction. First it was analyzed the ability of fibrinogen to be recognized by purified Pfg (FIG. 5). Human and bovine Fg (hFg, bFg) were immobilized to polysterene plate and the binding activity of biotinylated Pfg was measured. […] It has been shown that fibrinogen is a glycoprotein containing both N- and O-linked glycans (Debeire 1985; Reid Townsend 1982; L'Hôte 1996). […] In parallel, deglycosylation was assessed by visualization of a shift in the mobility after electrophoresis separation and Coomassie blue staining (FIG. 6A, lanes 3 and 5) and also by using the RCA-I plant lectin able to recognize ß-linked galactosyl residues in terminal position (FIG. 6C) (Green, 1987). […]
# [4] = test system: Pfg binding to fibrinogen; experiment: Inhibition of biotinylated Pfg binding to coated fibrinogen; set-up: species or system Propionibacterium acnes; conditions: biotinylated Pfg pretreated with increasing amount of recombinant peptide 1 h at 37° C.; fibrinogen coated 25 μg per well
# Experimental: FIG. 9: Dose-dependent inhibition of biotinylated Pfg binding to fibrinogen by fibrinogen-derived peptide. Biotinylated PFg (0.4 mg) was pretreated with increasing amount of recombinant peptides Fg1 (♦), Fg2 (▪) or BSA as control (●) for 1 h at 37° C., and the binding activity to coated fibrinogen on polystyrene plate (25 μg per well) was evaluated. Results are expressed as mean±SD. Each point was done in quadruplet.
# Since it has been shown that only Fg1 was able to recognize Pfg, biotinylated Pfg was pre-treated with various concentrations of purified Fg1 and tested its ability to recognize immobilized fibrinogen. Fg2 and BSA were used as neative controls (FIG. 9).
# [5] = test system: HaCaT, NHDK, ThP1, MRC5 and HDF cell lines; experiment: Cell viability (MTT) after treatment with Fg1 and Fg2 recombinant peptides; type: cell-based, human; conditions: all 5 cell lines; 0.22 to 7 mM for 18 h at 37° C.
# Experimental: FIG. 10: Evaluation of cell viability after treatment with the Fg1 and Fg2 recombinant peptides. Human immortalized and primary keratinocyte cell lines HaCaT and NHDK; immortalized monocytes cell line ThP1, and immortalized and primary fibroblast cell lines MRCS and HDF were incubated with Fg1 and Fg2 recombinant peptides with concentrations ranging from 0.22 to 7 mM for 18 h at 37° C. Cell viability was assessed using the MTT assay as described in Materials and Methods.
# Crystal violet staining was used to determine the number of adherent cells in 96-well plates. Briefly, after incubation with the test compound, the culture medium was discarded and the cells were incubated with a 0.05% crystal violet solution (Sigma) for 30 min at room temperature. After washing with PBS, 100% methanol was added, and the absorbance was measured spectrophotometrically at 540 nm on an ELISA multiwell reader. The MTT ([…]) assay was performed to test cell viability in 96-well plates. […] After thorough mixing, the absorbance was measured at 540 nm.
# Whole P. acnes bacteria are labelled by biotinylation, pre-treated or not with the peptides and contacted with the various cell lines. After removal of the unfixed bacteria, the adhesion activity was measured spectrophotometrically by using the streptavidin-peroxidase conjugate and a chromogenic substrate.
# P. acnes RON strain = experiment: Adhesion assay, biotinylated P. acnes binding to monocytes (ThP1); type: cell-based, Propionibacterium acnes; conditions: monocytes (THP-1); bacteria pretreated 0.87 to 7 μM, 1 h at 37° C.
# Experimental: FIG. 13: Dose-dependent inhibition of P. acnes RON binding to monocytes cell line. Biotinylated P. acnes RON strain at concentrations adjusted to 0.1 of absorbance at 600 nm was pre-treated with the recombinant peptides Fg1 and Fg2 and incubated 1 h at 37° C. with the human immortalized monocytes cell line ThP1. After removal of unbound bacteria, adhesion activity was detected at 410 nm. Data are means±S.D. of three separate experiments. Statistical significance is indicated by * (P<0.05), ** (P<0.01), *** (P<0.001), and **** (P<0.0001), respectively.
# The bacterial suspension was adjusted at 600 nm to the desired concentration, pretreated with peptides Fg1 and Fg2 at the final concentration ranging from 0.87 to 7 μM for 1 h at 37° C. and deposited on the previously saturated cells with a solution of PBS SVF 2% for 2 h. After incubation for 1 h at 37° C., unbound bacteria are removed by 3 washes with PBS and fixed bacteria are detected by a streptavidin-peroxidase solution of 0.5 μg/ml for 30 min.
# Whole P. acnes bacteria are labelled by biotinylation, pre-treated or not with the peptides and contacted with the various cell lines. After removal of the unfixed bacteria, the adhesion activity was measured spectrophotometrically by using the streptavidin-peroxidase conjugate and a chromogenic substrate. […]
molecule,measurement,setting,value
"LLLCVFLVKSQGVND [Fg1.1.1, LLLCVFLVKSQGVND]",Effect on cell viability (MTT),NHEK cells [1],no effect on cell viability
Jak Inhibitor I,Inhibition of IL-8 release,NHEK cells [2],67%
same,Inhibition of hBD-2 release,NHEK cells [3],80%
B1,Recognition of GST-fused recombinant Bß fibrinogen fragments by biotinylated Pfg,Pfg,only Fg1 was recognized
same,Inhibition of the recognition between Pfg and human fibrinogen,[4],did not
same,"Cytotoxic activity (cell viability, MTT)",[5],no cytotoxic activity
same,Inhibition of adhesion of P. acnes RON strain,P. acnes RON strain,no anti-adhesive activity
